Assay in all cases: cell-based or functional assay
In assay [1] the target is SARS-CoV-2 spike (S) protein, Omicron sublineage BF.7 (SARS-CoV-2).
The target in assay [2] is SARS-CoV-2 spike (S) protein, Omicron sublineage XBB1.5 (SARS-CoV-2).
Assay [3] deals with SARS-CoV-2 spike (S) protein, Omicron sublineage XBB (SARS-CoV-2).
Assay [4] has as its target SARS-CoV-2 spike (S) protein, Omicron sublineage BQ.1 (SARS-CoV-2).
In assay [5] the target is SARS-CoV-2 spike (S) protein, Omicron sublineage BQ.1.1 (SARS-CoV-2).
In assay [6] the target is SARS-CoV-2 spike (S) protein, Omicron sublineage XBB (SARS-CoV-2). The source holds these as a separate data set.
The target in assay [7] is SARS-CoV-2 Omicron BA.2.75.2 spike protein (SARS-CoV-2).
Assay [8] concerns the target SARS-CoV-2 Omicron BA.4/5 spike protein (SARS-CoV-2).
Assay [9] deals with SARS-CoV-2 Omicron BQ.1 spike protein (SARS-CoV-2).
In assay [10] the target is SARS-CoV-2 Omicron BQ.1.1 spike protein (SARS-CoV-2).
In assay [11] the target is SARS-CoV-2 Omicron XBB spike protein (SARS-CoV-2).

Read-outs that look alike come from different tables or passages of the source.

B1: A46 + E12 + B8 (protein)
VH 1: QVQLVESGGGVVQPGRSLRLSCAASGFTLSSYGMHWVRQAPGKGLEWVAVISYDGSNKYYVDSVKGRFTISRDNSKNTLYLQMNSLRAEDTAVYYCRWAYWELLPDYYYGMDVWGQGTTVTVSS
VL 1: QTVVTQEPSFSVSPGGTVTLTCGLSSGSVSTAYFPSWYQQTPGQAPRTLIYGTNTRSSGVPDRFSGSILGNKAALTITGAQADDESDYYCVLYMGRGIVVFGGGTKLTVL
VH 2: EVQLVESGGGLIQPGGSLRLSCAASGVIVSYNYMNWVRQAPGKGLEWVSVIYSGGSTFYADSVRGRFTISRDNSKNTLYLQMNSLRAEDTAVYYCARDLGPAGAFDIWGLGTMVTVSS
VL 2: EIVLTQSPGTLSLSPGETATLSCRASQSFSSDLAWYQQKPGQAPRLLIYGASSRATGIPDRFSGSGSGTDFTLTISRLEPADFAVYYCQQYGSSPPVTFGGGTKVEIK
VH 3: EVQLVESGGALIQPGGSLRLSCAASGIIVSANYMSWVRQAPGKGLEWVSVIYSGGSTFYADSVKGRFTISRDNSKNTLYLEMNSLRAEDTAVYYCARDAPILGVSDWGQGTLVTVSS
VL 3: EIVMTQSPAILSVSPGERATLSCRASQSVAINLAWYQQKPGQAPRLLIYAASSRATGIPGRFSGSGSETNFTLTISSLQSGDFAVYYCQQYITWPPSYTFGQGTKLEIK
In assay [1], B1 returned an IC50, pseudovirus neutralization of 12.9 nM and an IC80, pseudovirus neutralization of 33.8 nM. In assay [2], this molecule gave an IC50, pseudovirus neutralization of 12 nM and an IC80, pseudovirus neutralization of 33 nM.

B2: A19-46 + E8 + B8 (protein)
VH 1: B1 VH 1
VL 1: B1 VL 1
VH 2: QVTLRESGPALVKPTQTLTLTCTFSGFSLSTRGVCVSWIRQPPGKALEWLAFIDWDDDKYYNTSLKTRLTISKDTSKNQVVLTMTNVHPVDTATYYCARISSHHGSSWCTTFDYWGQGALVTVSA
VL 2: DTVMTQSPLSLPVTPGEPASISCRSSQSLLNSNGYNYLDWYVQKPGQSPQLLIYLGSNRASGVPDRFSGSGSGTDFTLKISRVEAEDVGVYYCMQPLQTPLFTFGPGTKVEIK
VH 3: B1 VH 3
VL 3: B1 VL 3
B2: the IC50, pseudovirus neutralization came to 11.3 nM in assay [3], 16 ng/mL in assay [4], 11.1 ng/mL in assay [5] and 11.3 ng/mL in assay [6]. The IC80, pseudovirus neutralization was found to be 17.7 nM in assay [3], 52.2 ng/mL in [4], 17 ng/mL in [5] and 17.7 ng/mL in assay [6].

B3: A46 + E12 + E8 (protein)
VH 1: B1 VH 1
VL 1: B1 VL 1
VH 2: B1 VH 2
VL 2: B1 VL 2
VH 3: B2 VH 2
VL 3: B2 VL 2
For B3, in [1], the IC50, pseudovirus neutralization was found to be 12 nM and the IC80, pseudovirus neutralization was determined as 30.6 nM. Besides, in assay [2], the IC50, pseudovirus neutralization worked out at 37.8 nM and the IC80, pseudovirus neutralization worked out at 96.7 nM.

B4: MX1045 (bispecific antibody)
chain 1: EIVLTQSPGTLSLSPGETATLSCRASQSFSSDLAWYQQKPGQAPRLLIYGASSRATGIPDRFSGSGSGTDFTLTISRLEPADFAVYYCQQYGSSPPVTFGGGTKVEIKGGSSGQTVVTQEPSFSVSPGGTVTLTCGLSSGSVSTAYFPSWYQQTPGQAPRTLIYGTNTRSSGVPDRFSGSILGNKAALTITGAQADDESDYYCVLYMGRGIVVFGGGTKLTVLGGGGSGGSGSGGGGSASGSGQVQLVESGGGVVQPGRSLRLSCAASGFTLSSYGMHWVRQAPGKGLEWVAVISYDGSNKYYVDSVKGRFTISRDNSKNTLYLQMNSLRAEDTAVYYCRWAYWELLPDYYYGMDVWGQGTTVTVSSGGSSGEVQLVESGGGLIQPGGSLRLSCAASGVIVSYNYMNWVRQAPGKGLEWVSVIYSGGSTFYADSVRGRFTISRDNSKNTLYLQMNSLRAEDTAVYYCARDLGPAGAFDIWGLGTMVTVSSASGGSGDKTHTCPPCPAPELLGGPSVFLFPPKPKDTLMISRTPEVTCVVVDVSHEDPEVKFNWYVDGVEVHNAKTKPREEQYNSYVVSVLTVLHQDWLNGKEYKCKVSNKALPAPIEKTISKAKGQPREPQVYTLPPCRDELTKNQVSLWCLVKGFYPSDIAVEWESNGQPENNYKTTPPVLDSDGSFFKKLTVDKSRWQQGNVFSCSVLHEALHSHYTQKSLSLSPG
chain 2: QTVVTQEPSFSVSPGGTVTLTCGLSSGSVSTAYFPSWYQQTPGQAPRTLIYGTNTRSSGVPDRFSGSILGNKAALTITGAQADDESDYYCVLYMGRGIVVFGGGTKLTVLGGSSGEIVLTQSPGTLSLSPGETATLSCRASQSFSSDLAWYQQKPGQAPRLLIYGASSRATGIPDRFSGSGSGTDFTLTISRLEPADFAVYYCQQYGSSPPVTFGGGTKVEIKGGGGSGGSGSGGGGSASGSGEVQLVESGGGLIQPGGSLRLSCAASGVIVSYNYMNWVRQAPGKGLEWVSVIYSGGSTFYADSVRGRFTISRDNSKNTLYLQMNSLRAEDTAVYYCARDLGPAGAFDIWGLGTMVTVSSGGSSGQVQLVESGGGVVQPGRSLRLSCAASGFTLSSYGMHWVRQAPGKGLEWVAVISYDGSNKYYVDSVKGRFTISRDNSKNTLYLQMNSLRAEDTAVYYCRWAYWELLPDYYYGMDVWGQGTTVTVSSASGGSGDKTHTCPPCPAPELLGGPSVFLFPPKPKDTLMISRTPEVTCVVVDVSHEDPEVKFNWYVDGVEVHNAKTKPREEQYNSYVVSVLTVLHQDWLNGKEYKCKVSNKALPAPIEKTISKAKGQPREPQVCTLPPSRDELTKNQVSLSCAVKGFYPSDIAVEWESNGQPENNYKTTPPVLDSDGSFFLVSKLTVDKSRWQQGNVFSCSVLHEALHSHYTQKSLSLSPG
In the case of B4, the IC50, pseudovirus neutralization came out at 2.91 ng/mL in assay [7]; 2.68 ng/mL in assay [8]; 6.02 ng/mL in [9]; 1.5 ng/mL in [10]; 6.09 ng/mL in [11]. In addition, the IC80, pseudovirus neutralization in [7] is 5.43 ng/mL; in [8] it was 6.06 ng/mL; in assay [9], 22.3 ng/mL; in assay [10], 8.57 ng/mL; in [11] it was 18 ng/mL.

B5: MX1046 (bispecific antibody)
chain 1: EIVLTQSPGTLSLSPGETATLSCRASQSFSSDLAWYQQKPGQAPRLLIYGASSRATGIPDRFSGSGSGTDFTLTISRLEPADFAVYYCQQYGSSPPVTFGGGTKVEIKGGSSGDTVMTQSPLSLPVTPGEPASISCRSSQSLLNSNGYNYLDWYVQKPGQSPQLLIYLGSNRASGVPDRFSGSGSGTDFTLKISRVEAEDVGVYYCMQPLQTPLFTFGPGTKVEIKGGGGSGGSGSGGGGSASGSGQVTLRESGPALVKPTQTLTLTCTFSGFSLSTRGVCVSWIRQPPGKALEWLAFIDWDDDKYYNTSLKTRLTISKDTSKNQVVLTMTNVHPVDTATYYCARISSHHGSSWCTTFDYWGQGALVTVSAGGSSGEVQLVESGGGLIQPGGSLRLSCAASGVIVSYNYMNWVRQAPGKGLEWVSVIYSGGSTFYADSVRGRFTISRDNSKNTLYLQMNSLRAEDTAVYYCARDLGPAGAFDIWGLGTMVTVSSASGGSGDKTHTCPPCPAPELLGGPSVFLFPPKPKDTLMISRTPEVTCVVVDVSHEDPEVKFNWYVDGVEVHNAKTKPREEQYNSYVVSVLTVLHQDWLNGKEYKCKVSNKALPAPIEKTISKAKGQPREPQVYTLPPCRDELTKNQVSLWCLVKGFYPSDIAVEWESNGQPENNYKTTPPVLDSDGSFFKKLTVDKSRWQQGNVFSCSVLHEALHSHYTQKSLSLSPG
chain 2: DTVMTQSPLSLPVTPGEPASISCRSSQSLLNSNGYNYLDWYVQKPGQSPQLLIYLGSNRASGVPDRFSGSGSGTDFTLKISRVEAEDVGVYYCMQPLQTPLFTFGPGTKVEIKGGSSGEIVLTQSPGTLSLSPGETATLSCRASQSFSSDLAWYQQKPGQAPRLLIYGASSRATGIPDRFSGSGSGTDFTLTISRLEPADFAVYYCQQYGSSPPVTFGGGTKVEIKGGGGSGGSGSGGGGSASGSGEVQLVESGGGLIQPGGSLRLSCAASGVIVSYNYMNWVRQAPGKGLEWVSVIYSGGSTFYADSVRGRFTISRDNSKNTLYLQMNSLRAEDTAVYYCARDLGPAGAFDIWGLGTMVTVSSGGSSGQVTLRESGPALVKPTQTLTLTCTFSGFSLSTRGVCVSWIRQPPGKALEWLAFIDWDDDKYYNTSLKTRLTISKDTSKNQVVLTMTNVHPVDTATYYCARISSHHGSSWCTTFDYWGQGALVTVSAASGGSGDKTHTCPPCPAPELLGGPSVFLFPPKPKDTLMISRTPEVTCVVVDVSHEDPEVKFNWYVDGVEVHNAKTKPREEQYNSYVVSVLTVLHQDWLNGKEYKCKVSNKALPAPIEKTISKAKGQPREPQVCTLPPSRDELTKNQVSLSCAVKGFYPSDIAVEWESNGQPENNYKTTPPVLDSDGSFFLVSKLTVDKSRWQQGNVFSCSVLHEALHSHYTQKSLSLSPG
As to B5, the IC50, pseudovirus neutralization in assay [7] was 0.36 ng/mL; in assay [8] it was 0.9 ng/mL; in assay [9], 1.66 ng/mL; in assay [10], 1.23 ng/mL; in assay [11], 1.26 ng/mL. Besides, the IC80, pseudovirus neutralization in [7] is 1.29 ng/mL; in assay [8], 1.56 ng/mL; in [9] it was 4.08 ng/mL; in assay [10], 3.97 ng/mL; in assay [11], 2.88 ng/mL.
